In article PMC9961482:

Tests used:
[1] = biological target: human ACE2-hFc fusion protein (human) (UniProt Q9BYF1); experiment: SPR
[2] = biological target: Encapsulin–SpyTag (Myxococcus xanthus | Streptococcus pyogenes) (UniProt Q1D6H4); experiment: SEC-MALS

Row | stoichiometry N [2] | Substance | kon [1] | per cent reduction of binding after four weeks at 37 °C [1] | per cent reduction of binding after two weeks at 37 °C [1]
1 | – | Encapsulin–mRBD nanoparticle (from UniProt Q1D6H4;P0DTC2) (complex) | 2.58e+06 M⁻¹ s⁻¹ | 36 per cent | 1 per cent
2 | 180 | Encapsulin–SpyTag (from UniProt Q1D6H4 1-287) | – | – | –
